Assay results from publication PMC4686660, “MLLT1 YEATS domain mutations in clinically distinctive Favourable Histology Wilms tumours” (Nature Communications, 2015).

Legend:
Test in all cases: ITC; YEATS domain in the measurement cell (90-130 uM), histone peptides in the injection syringe (1.2 mM); 50 mM Hepes pH 7.4, 300 mM NaCl, 5 mM beta-mercaptoethanol, 25 °C; MicroCal ITC200 and TA Nano microcalorimeters; triplicate
[1] = target: wild-type MLLT1 YEATS domain polypeptide (residues 1-138 of human MLLT1) (human) (UniProt Q03111)
[2] = target: MLLT1 YEATS domain polypeptide p.111_113NPP>K (human) (UniProt Q03111)
[3] = target: T1, MLLT1 YEATS domain polypeptide p.112_114PPV>L (human, UniProt Q03111 1-138, p.112_114PPV>L); conditions: both partners purified
T1 construct: Somatic mutation found in tumours; source: E. coli BL21(pLysS), purified (Ni-NTA sepharose, size exclusion chromatography)
T1 sequence (looked up): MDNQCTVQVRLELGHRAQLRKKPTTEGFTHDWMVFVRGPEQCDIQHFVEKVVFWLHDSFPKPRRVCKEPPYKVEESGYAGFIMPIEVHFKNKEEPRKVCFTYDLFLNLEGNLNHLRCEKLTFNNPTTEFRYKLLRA

[4] = target: T2, wild-type MLLT1 YEATS domain polypeptide (residues 1-138 of human MLLT1) (human, UniProt Q03111 1-138); conditions: both partners purified
T2 construct: MLLT1 (ENL), human, YEATS domain, residues 1-138; codon-optimized DNA in pET28 with a thrombin cleavage site between the 6His tag and the protein; also called ENL; YEATS1; source: E. coli BL21(pLysS), purified (Ni-NTA sepharose, size exclusion chromatography)
T2 sequence (looked up): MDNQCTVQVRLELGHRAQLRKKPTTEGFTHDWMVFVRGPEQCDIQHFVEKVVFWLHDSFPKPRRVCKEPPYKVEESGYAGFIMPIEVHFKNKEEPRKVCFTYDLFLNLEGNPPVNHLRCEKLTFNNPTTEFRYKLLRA

Row | Molecule | Kd [1] [µM] | Kd [2] [µM] | Kd [3] [µM] | Kd [4] [µM]
1 | H3K27ac histone H3 tail peptide | 140 | 330 |  | 
2 | ARTKQTARKST (acetyl-lysine at K9) [H3K9ac histone H3 tail peptide] |  |  | 107 | 60
